From patent US20070224124A1 (UNIVERSITY OF SOUTH FLORIDA, published 2007)

T1: mSosI ( (endogenous in murine ES …, UniProt Q62245 1-1319))
T1 construct: Its expression in ES cells was confirmed by immunoblot of whole cell lysate; also called mSos1
T1 sequence (looked up): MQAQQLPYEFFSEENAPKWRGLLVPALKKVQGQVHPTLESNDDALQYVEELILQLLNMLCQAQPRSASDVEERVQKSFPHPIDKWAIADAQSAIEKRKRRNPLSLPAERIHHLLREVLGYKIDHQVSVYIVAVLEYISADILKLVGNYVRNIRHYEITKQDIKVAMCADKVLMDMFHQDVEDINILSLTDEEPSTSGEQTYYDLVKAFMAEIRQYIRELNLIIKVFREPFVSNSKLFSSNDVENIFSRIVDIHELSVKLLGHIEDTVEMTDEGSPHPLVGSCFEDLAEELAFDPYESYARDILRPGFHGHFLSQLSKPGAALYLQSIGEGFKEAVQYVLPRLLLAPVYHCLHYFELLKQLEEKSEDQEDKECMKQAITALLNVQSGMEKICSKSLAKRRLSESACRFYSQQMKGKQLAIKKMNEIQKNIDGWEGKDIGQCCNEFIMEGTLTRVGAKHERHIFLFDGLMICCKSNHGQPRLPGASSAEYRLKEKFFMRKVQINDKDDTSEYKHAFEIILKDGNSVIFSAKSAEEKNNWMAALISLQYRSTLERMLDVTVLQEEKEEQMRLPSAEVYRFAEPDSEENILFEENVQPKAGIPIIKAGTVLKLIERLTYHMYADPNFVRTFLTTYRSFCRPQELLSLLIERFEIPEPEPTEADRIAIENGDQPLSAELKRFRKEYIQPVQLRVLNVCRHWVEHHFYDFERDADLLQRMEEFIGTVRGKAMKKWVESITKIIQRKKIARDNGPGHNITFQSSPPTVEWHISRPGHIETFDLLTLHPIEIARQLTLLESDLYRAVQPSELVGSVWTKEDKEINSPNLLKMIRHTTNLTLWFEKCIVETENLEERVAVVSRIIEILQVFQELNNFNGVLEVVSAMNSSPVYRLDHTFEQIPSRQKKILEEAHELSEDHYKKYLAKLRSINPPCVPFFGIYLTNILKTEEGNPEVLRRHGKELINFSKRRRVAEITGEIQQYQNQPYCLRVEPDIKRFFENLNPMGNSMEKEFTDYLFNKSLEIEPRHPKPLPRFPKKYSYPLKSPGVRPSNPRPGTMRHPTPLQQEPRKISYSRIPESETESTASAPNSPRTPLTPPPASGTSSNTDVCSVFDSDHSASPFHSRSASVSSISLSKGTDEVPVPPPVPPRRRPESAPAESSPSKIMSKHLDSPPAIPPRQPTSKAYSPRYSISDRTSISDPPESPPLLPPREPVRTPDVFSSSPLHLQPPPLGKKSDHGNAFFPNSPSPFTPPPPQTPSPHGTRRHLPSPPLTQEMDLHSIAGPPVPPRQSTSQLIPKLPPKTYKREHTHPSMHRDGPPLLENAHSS

B1: s-SHIP (stem-SHIP; SH2-lacking isoform of SH2-containing inositol 5'-phosphatase, approximately 104 kd) (enzyme, mouse, UniProt Q9ES52-5 1-928, looked up)
chain: MVAKLSQLTSLLSSIEDKVKSLLHEGSESTNRRSLIPPVTFEVKSESLGIPQKMHLKVDVESGKLIVKKSKDGSEDKFYSHKKILQLIKSQKFLNKLVILVETEKEKILRKEYVFADSKKREGFCQLLQQMKNKHSEQPEPDMITIFIGTWNMGNAPPPKKITSWFLSKGQGKTRDDSADYIPHDIYVIGTQEDPLGEKEWLELLRHSLQEVTSMTFKTVAIHTLWNIRIVVLAKPEHENRISHICTDNVKTGIANTLGNKGAVGVSFMFNGTSLGFVNSHLTSGSEKKLRRNQNYMNILRFLALGDKKLSPFNITHRFTHLFWLGDLNYRVELPTWEAEAIIQKIKQQQYSDLLAHDQLLLERKDQKVFLHFEEEEITFAPTYRFERLTRDKYAYTKQKATGMKYNLPSWCDRVLWKSYPLVHVVCQSYGSTSDIMTSDHSPVFATFEAGVTSQFVSKNGPGTVDSQGQIEFLACYATLKTKSQTKFYLEFHSSCLESFVKSQEGENEEGSEGELVVRFGETLPKLKPIISDPEYLLDQHILISIKSSDSDESYGEGCIALRLETTEAQHPIYTPLTHHGEMTGHFRGEIKLQTSQGKMREKLYDFVKTERDESSGMKCLKNLTSHDPMRQWEPSGRVPACGVSSLNEMINPNYIGMGPFGQPLHGKSTLSPDQQLTAWSYDQLPKDSSLGPGRGEGPPTPPSQPPLSPKKFSSSTANRGPCPRVQEARPGDLGKVEALLQEDLLLTKPEMFENPLYGSVSSFPKLVPRKEQESPKMLRKEPPPCPDPGISSPSIVLPKAQEVESVKGTSKQAPVPVLGPTPRIRSFTCSSSAEGRMTSGDKSQGKPKASASSQAPVPVKRPVKPSRSEMSQQTTPIPAPRPPLPVKSPAVLQLQHSKGRDYRDNTELPHHGKHRQEEGLLGRTAMQ
notes: also called 8-SHIP protein isoform; 104-kd and 97-kd proteins

How the values were obtained:
[1] = target: B1; assay: co-immunoprecipitation from ES-TL1 cell lysate with P2C6 anti-SHIP antibody, immunoblot for Shc
From the text: (§1) FIG. 6 illustrates how ES cells express the 8-SHIP protein isoform that associates with the Grb2 adapter protein. (A) Immunoprecipitation and immunoblot detection of s-SHIP in ES cell lysates. […] No tyrosine phosphorylation of these proteins was detected when they were probed with the 4G10 anti-phosphotyrosine antibody. For comparison, lysates from 293T cells transfected with SHIP cDNA (lane 1) and s-SHIP cDNA (lane 2) were included in the blots. To further assess the tyrosine phosphorylation status of s-SHIP, timed LIF stimulation studies were performed. ES-TL1 cells incubated for 5 hours without LIF were stimulated with 2000 U/mL LIF for 0, 2, 5, or 10 minutes and were rapidly lysed. Equal amounts of total protein were immunoprecipitated with the P2C6 antibody and probed separately with the P2C6 and 4G10 antibodies (lanes 6-9). No tyrosine phosphorylation of s-SHIP was detected at any time point with the 4G10 antibody. For comparison, A20 8-lymphoid cells were stimulated with antiIgG antibody for 0 or 5 minutes, lysed, immunoprecipitated with P2C6, and probed with P2C6 and 4G10 (lanes 3, 4), showing prominent tyrosine phosphorylation of SHIP at 5 minutes. Molecular mass standards are indicated on the right. (B) s-SHIP associates with Grb2 but not Shc in ES cells. ES-TL1 cell lysates were prepared and immunoprecipitated with the […] anti-SHIP monoclonal antibody. […]

mSosI = target: T1, mSosI; assay: co-immunoprecipitation from ES-TL1 cell lysate with P2C6 anti-SHIP antibody, immunoblot for mSosI
From the text: as §1

Binder | binding result [1] | binding result (mSosI)
Shc adapter protein (other, UniProt P98083 1-579, looked up, Its expression in ES cells was confirmed by immunoblot of whole cell lysate) MDLLPPKPKYNPLRNESLSSLEEGASGSTPPEELPSPSASSLGPILPPLPGDDSPTTLCSFFPRMSNLKLANPAGGRLGPKGEPGKAAEDGEGSAGAALRDSGLLPLLQDMNKLSGGGGRRTRVEGGQLGGEEWTRHGSFVNKPTRGWLHPNDKVMGPGVSYLVRYMGCVEVLQSMRALDFNTRTQVTREAISLVCEAVPGAKGATRRRKPCSRPLSSILGRSNLKFAGMPITLTVSTSSLNLMAADCKQIIANHHMQSISFASGGDPDTAEYVAYVAKDPVNQRACHILECPEGLAQDVISTIGQAFELRFKQYLRNPPKLVTPHDRMAGFDGSAWDEEEEEPPDHQYYNDFPGKEPPLGGVVDMRLREGAARPTLPSAQMSSHLGATLPIGQHAAGDHEVRKQMLPPPPCPGRELFDDPSYVNIQNLDKARQAGGGAGPPNPSLNGSAPRDLFDMKPFEDALRVPPPPQSMSMAEQLQGEPWFHGKLSRREAEALLQLNGDFLVRESTTTPGQYVLTGLQSGQPKHLLLVDPEGVVRTKDHRFESVSHLISYHMDNHLPIISAGSELCLQQPVDRKV | no binding | –
B1 | – | no binding
